Substrate: C[N+](C)(C)CC(O)CC(=O)[O-]
Experiment: TP_TRANSPORTER: uptake in Caco-2 cells
Type: functional, cell-based

B1: Organic cation/carnitine transporter 2 (Homo sapiens) (protein)
chain: MRDYDEVTAFLGEWGPFQRLIFFLLSASIIPNGFTGLSSVFLIATPEHRCRVPDAANLSSAWRNHTVPLRLRDGREVPHSCRRYRLATIANFSALGLEPGRDVDLGQLEQESCLDGWEFSQDVYLSTIVTEWNLVCEDDWKAPLTISLFFVGVLLGSFISGQLSDRFGRKNVLFVTMGMQTGFSFLQIFSKNFEMFVVLFVLVGMGQISNYVAAFVLGTEILGKSVRIIFSTLGVCIFYAFGYMVLPLFAYFIRDWRMLLVALTMPGVLCVALWWFIPESPRWLISQGRFEEAEVIIRKAAKANGIVVPSTIFDPSELQDLSSKKQQSHNILDLLRTWNIRMVTIMSIMLWMTISVGYFGLSLDTPNLHGDIFVNCFLSAMVEVPAYVLAWLLLQYLPRRYSMATALFLGGSVLLFMQLVPPDLYYLATVLVMVGKFGVTAAFSMVYVYTAELYPTVVRNMGVGVSSTASRLGSILSPYFVYLGAYDRFLPYILMGSLTILTAILTLFLPESFGTPLPDTIDQMLRVKGMKHRKTPSHTRMLKDGQERPTILKSTAF
Km: 14.1 µM
